{"source": "patent US20250276073A1", "about": "(Bicycle, published 2025)", "binders": {"B1": {"name": "BCY23201 (peptide)", "peptide": "CPXDAYLGCXSXCEPW", "modifications": "CP[HyP]DAYLGC[tBuGly]S[pCaPhe]CEPW: HyP at 3, tBuGly at 10, pCaPhe at 12; N-terminal acetyl; C-terminal CONH2; Cys 1, 9, 13 bonded to TATB scaffold", "notes": "Bicyclic peptide"}}, "biological_target": "T1, Recombinant human His-tagged TfR1 (a.a. 89-760) (ACRO Biosystems, CD1-H5243) (human, UniProt P02786 89-760)", "T1 construct": "range 89-760; Bought protein; Captured and amine-coupled on an NTA chip; also called human TfR1; transferrin receptor 1; not shown: His tag (printed 'Hiss-tagged')", "T1 sequence (P02786 89-760 limits assumed)": "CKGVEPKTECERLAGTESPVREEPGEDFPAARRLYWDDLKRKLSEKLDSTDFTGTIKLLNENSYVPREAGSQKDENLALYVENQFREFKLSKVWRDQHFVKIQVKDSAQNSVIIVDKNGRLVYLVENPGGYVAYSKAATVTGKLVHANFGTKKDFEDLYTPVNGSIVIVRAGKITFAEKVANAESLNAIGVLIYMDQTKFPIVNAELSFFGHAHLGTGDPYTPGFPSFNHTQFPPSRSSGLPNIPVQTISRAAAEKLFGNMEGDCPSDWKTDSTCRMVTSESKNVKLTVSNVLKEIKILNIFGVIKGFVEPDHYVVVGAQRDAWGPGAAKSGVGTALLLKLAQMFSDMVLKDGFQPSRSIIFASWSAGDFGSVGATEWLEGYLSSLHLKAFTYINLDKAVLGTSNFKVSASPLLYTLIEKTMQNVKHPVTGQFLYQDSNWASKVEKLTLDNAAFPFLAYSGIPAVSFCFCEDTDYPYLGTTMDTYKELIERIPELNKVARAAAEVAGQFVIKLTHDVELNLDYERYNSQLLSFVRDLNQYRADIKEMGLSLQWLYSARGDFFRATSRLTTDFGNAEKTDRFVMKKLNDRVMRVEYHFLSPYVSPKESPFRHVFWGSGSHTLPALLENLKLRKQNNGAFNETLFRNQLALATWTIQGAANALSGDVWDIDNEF", "assay": "SPR (Biacore), TfR1 captured/coupled on NTA chip, peptide as analyte", "data": [{"binder": "B1", "values": [{"measurement": "Kd", "value": 17, "unit": "nM"}]}]}
